Measured values: the supplement of paper PMC9170038

System: MS2 coat protein
Assay: apparent KD of MS2 coat protein; designed switch direction (-1 OFF switch, 1 ON switch): -1; higher = weaker reporter binding
Outline: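 SNAP-549-labelled MS2 coat protein was titrated, doubling from 0.7 or 1.5 nM to 3 µM, over designed RNA switches transcribed on Illumina chips by stalled E. coli RNA polymerase. Runs were done without input, with 200 uM small-molecule ligand, or with an oligonucleotide input. Apparent KD is the per-design median over clusters of curve-fitted normalised fluorescence.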

[1] = input ligand: microRNA oligo, concentration not stated
[2] = Eterna round: R95, input ligand: FMN 200 uM
[3] = Eterna round: R95, input ligand: microRNA oligo, concentration not stated
[4] = Eterna round: R95, input ligand: none

Sequence	apparent KD of MS2 coat protein (input ligand: FMN 200 uM)	apparent KD of MS2 coat protein [1]	apparent KD of MS2 coat protein (input ligand: none)	apparent KD of MS2 coat protein [2]	apparent KD of MS2 coat protein [3]	apparent KD of MS2 coat protein [4]
ACCUAAAAGCUAGGAUAUACAUGAGGAUCACCCAUGUACACAGGAAGACUAACCUGUGGACUCAUGUAGAAGGAGCAUGACAAA [Raengearle] (Eterna round: R96, puzzle: Exclusion NG 2)	117 nM	349 nM	283 nM	–	–	–
GCGGAAAACUUAGGAUAUCAGGGCUGUACAUGAGGAUCACCCAUGUGAUAGCUCUAACACGGUCCUGAGAAGGGAGAGCCCGGA [Biorenen] (Eterna round: R96, puzzle: Exclusion NG 2)	109 nM	49.7 nM	73 nM	–	–	–
GUUUACAAGCUAAGAUCCUACAUGAGGAUCACCCAUGUGGUCCGGUGACGUGAGUCACCGGACUUAGCUCGUCUUGU [salish99_S_TOV1_R5_001] (Eterna round: R97, puzzle: Sensor, turn-off variant 1)	86.8 nM	–	90.4 nM	–	–	–
UGGGUACUCCAUAGAAGAGACAUGAGGAUCACCCAUGUAGGACAAGCUUUUUGCUCGUCUUAAGAUGAGAGAUAGGA [JR_SV3TOV1_Sub013] (puzzle: Sensor v3, turn-off variant 1)	–	–	–	143 nM	114 nM	126 nM
GCACGGAGUGUAGGAUAUUAGUGCGAUUAGCACUGAGAAGGACAUGAGGAUCACCCAUGUUCCUCAAUAAUUAACCUUCCGUGC [Eli exng1 - 039] (Eterna round: R96, puzzle: Exclusion NG 1)	16.7 nM	8.49 nM	12.9 nM	–	–	–
GAAAAUGUAGAGGAUAUUUCAGAUCAAGACUGCAAAGAAGGCUGCACAUGAGGAUCACCCAUGUGGUCAACAAA [Mod of Quesina 15 - Jieux - Exclusion 6] (Eterna round: R97, puzzle: Exclusion 6)	79.1 nM	–	22.3 nM	–	–	–
AGAUUACAUGAGGAUAUCGUAUUGGAUAUAGUGCGAGAAGGCAUGACAUGAGGAUCACCCAUGUAGUGUUGGGA [JR_Ex6_Sub010] (Eterna round: R97, puzzle: Exclusion 6)	117 nM	–	187 nM	–	–	–
CUGAGGUAGCGGUCCUAUGACAUGAGGAUCACCCAUGUACCUUGCUUUGAGCUUAUUGCUCGUCUUAUGAUUCUCGG [Mat - Sensor v3 - turn-off var 1 - JL Mod - D41] (puzzle: Sensor v3, turn-off variant 1)	–	–	–	399 nM	299 nM	460 nM
AUAAUAUAUGUAGGAUAUCUGCACGUUUAGUGCAGAGAAGGACAUGAGGAUCACCCAUGUAAUUAAGAUCAAUUAUUAAAUUAU [ENG1/4-B2] (Eterna round: R96, puzzle: Exclusion NG 1)	59.5 nM	29.5 nM	40.8 nM	–	–	–
CAUAGUUACUCAGGAUAUCUUACAUGAGGAUCACCCAUGUAAUAAAUGAGAAUUUCGAAUGUAUAAGAGAAGGGAGAAAUCUAC [Ostracism 58 - Jieux - Exclusion NG 2] (Eterna round: R96, puzzle: Exclusion NG 2)	15.9 nM	14 nM	17.6 nM	–	–	–
CACCGUUAGAGAGGAUAUCGUACAUGAGGAUCACCCAUGUAAUAAAUGAGAAUUUCGGAUGUAUGCGAGAAGGCUCAAAUCGGC [Ostracism 39 - Jieux - Exclusion NG 2] (Eterna round: R96, puzzle: Exclusion NG 2)	42.1 nM	42.5 nM	60 nM	–	–	–
UUCGUGUGAGGAUAUCGAUUAUGGAAGUCUAGAUCCAUACGCGAGAAGGCACAUGAGGAUCACCCAUGUAAUGG [jl-ex4-4.34 ViennaUCT mod] (Eterna round: R97, puzzle: Exclusion 4)	38 nM	–	227 nM	–	–	–
GGUUGACAUGAGGAUCACCCAUGUGAGGAUAUGCGAGAGAAAAAAGUGAGGAAGAAUUGCAGAAGGCGCUGUCG [salish99-ex1_r3_015] (puzzle: Exclusion 1)	–	–	–	69.3 nM	37.1 nM	76.9 nM
AAGCUGGUAGGAUAUCGUACACGUAACAUGAGGAUCACCCAUGUGCGCUAUGUUGGAACUCGAGAAGGGCCCAUUC [Eternabot (L2) Solution 3] (Eterna round: R97, puzzle: Exclusion 5)	19.3 nM	–	18.5 nM	–	–	–
CGAUGCACGAAUCCACAUGAGGAUCACCCAUGUCGUGUUAGCGAGGAUAUCGGAGACACAUAGUAUGAGAAGGCGCGAACCUGA [Ex NG3 #22] (Eterna round: R96, puzzle: Exclusion NG 3)	13.1 nM	11.9 nM	13.1 nM	–	–	–
GCGGAGUAUGUAGGAUAUCGGUCAGUUUCUGAUCGAGAAGGACAUGAGGAUCACCCAUGUAAAUUCCUCGCUUUGUGAGGCCGC [JL ENG1 3.65] (Eterna round: R96, puzzle: Exclusion NG 1)	21.6 nM	12.8 nM	17.1 nM	–	–	–
AAGAGUGCAGGAUAUACUUGUUAGGACGGUUGGAUGGUUUGACAUGAGGAUCACCCAUGUAGAAGGGCAGAGAG [JR_Exclu2_Sub053] (puzzle: Exclusion 2)	–	–	–	–	70.5 nM	–

Sequence	apparent KD of MS2 coat protein (input ligand: FMN 200 uM)	apparent KD of MS2 coat protein [1]	apparent KD of MS2 coat protein (input ligand: none)	apparent KD of MS2 coat protein [2]	apparent KD of MS2 coat protein [3]	apparent KD of MS2 coat protein [4]
CUAACAUGCUGGUGAUCAUACAUGAGGAUCACCCAUGUAACAAGCUUUUUGCUCGUCUUAUAAGAUCACCAGCAUGU [Stov1/9-A4] (Eterna round: R97, puzzle: Sensor, turn-off variant 1)	16.2 nM	–	15.5 nM	–	–	–
GGUUGGCGAGGAUAUACAUGAGGAUCACCCAUGUGAGAGAAAAGAGUGAGAACGAAAAGUAGAAGGCGCUGACG [salish99_ex3_r3_059] (puzzle: Exclusion 3)	–	–	–	60 nM	112 nM	207 nM
UUUAUAUAGUAAGGAUAUGUAUUAAUUUUAUAGACAGAAGGUACUGACAUGAGGAUCACCCAUGUUUUAGUGUGGGCAUGUAGU [JMF's solution 94] (Eterna round: R96, puzzle: Exclusion NG 1)	–	299 nM	–	–	–	–
UGCUAGUCAGGAUAUACGAACAUGUCAAAAGACGUGAAGGGACAUGAGGAUCACCCAUGUAGAAGGGACUAGCG [salish99_ex2_r3_007] (puzzle: Exclusion 2)	–	–	–	144 nM	27.2 nM	27.9 nM
AACACUGCAGGAUAUACAUGAGGAUCACCCAUGUGAUCCGAUAACUCCCACGGGAGGAGUAGAAGGGUAAAAGG [Eternabot (Original) Solution 6] (Eterna round: R97, puzzle: Exclusion 3)	170 nM	–	264 nM	–	–	–
GGAUUCCAGUGAGGAUAUCCAAAUAAAAGCCAUGGAGAAGGCACAUGAGGAUCACCCAUGUAGGGCAAUAACAGCGAACGCUGC [Erenlege] (Eterna round: R96, puzzle: Exclusion NG 1)	73 nM	43.3 nM	30.8 nM	–	–	–
GCAGAUCAAGUGAGGAUAUGCUCUACCUCGGUAGAGCAGAAGGCACAUGAGGAUCACCCAUGUGAUUGAUCUGC [Omei Ex4B B5] (Eterna round: R97, puzzle: Brourd's mod of Exclusion 4)	26.9 nM	–	19.5 nM	–	–	–
UUCCACGAUGUCAGGAUAUGUAGGGCCGCUGCUAGGCAGAAGGGACAUGAGGAUCACCCAUGUACUGACUACUG [Eternabot (L2) Solution 84] (Eterna round: R97, puzzle: Brourd's mod of Exclusion 4)	78.2 nM	–	69.6 nM	–	–	–
ACAGUGUUAGGAUAUCUGAGAGUUAGUCUCGACUAGUCGAAGGAGAAGGAACAUGAGGAUCACCCAUGUAGAUC [EX4 #77] (Eterna round: R97, puzzle: Exclusion 4)	144 nM	–	35.8 nM	–	–	–
ACUAGAUGAGGAUAUGCAUAUUUUCGUGUUCUUCUAGAUUAACAUGAGGAUCACCCAUGUAGAAGGCGUCUGGC [Exclusion 2 - 20] (puzzle: Exclusion 2)	–	–	–	–	18 nM	–
CUUUUGUGAGGAUAUCAGUUGUAAAAAAAUAAAAUUACUACUGAGAAGGCACAUGAGGAUCACCCAUGUUCCUC [salish99_ex4_r3_033] (puzzle: Exclusion 4)	–	–	–	–	33.2 nM	–
AAUCCUGAAGUUAGGAUAUGAAGUAUCACUACACUUCAGAAGGAACUUGAGGAUCACCCAAGUAGCCGUGAGGC [jl-bmx4.4.63 ViennaUCT mod] (Eterna round: R97, puzzle: Brourd's mod of Exclusion 4)	96 nM	–	20.3 nM	–	–	–
UUUUACGGAGGAUAUACAUUUUUUUUAUUAUCCUCAUUAUUACAUGAGGAUCACCCAUGUAGAAGGCCGAUUUU [My Design] (puzzle: Exclusion 2)	–	–	–	–	59.1 nM	–
UCUCCCACUCGAGGAUAUCCAUAGAGCAACUGAGGAGAAGGCGAGUGUCCAAAACAUGAGGAUCACCCAUGUGACCUCCCGAAC [Eredgein] (Eterna round: R96, puzzle: Exclusion NG 1)	101 nM	37.5 nM	39.6 nM	–	–	–
CUAUUCCGAGGAUAUACAUGAGGAUCACCCAUGUCGGGCCUCAGCGUUUAGCGCGUAAGUAGAAGGUGGGUUUC [JL Riri mod 7] (puzzle: Exclusion 3)	–	–	–	–	27.4 nM	–
ACGCAGAGAGGAUAUACAUGAGGAUCACCCAUGUAUAAACGCACUAACUCUCCUCACUGUAGAAGGCUCAUGCA [Larerige] (puzzle: Exclusion 3)	–	–	–	–	11.3 nM	–
GGGUUUCCGCAGGAUAUACGAUGGCGCAAUGUAGUAGAAGGGCGGACAUGAGGAUCACCCAUGUUCGUUCCUCG [EX6 C.25] (Eterna round: R97, puzzle: Exclusion 6)	26.4 nM	–	14.6 nM	–	–	–
